Test [1] relates to double-knockout Escherichia coli strain (EDCE). Kind of test: Growth of double-knockout E. coli (EDCE) transformed with Oryza sativa EPSPS genes in glyphosate media (Example 5). It counts as cell-based. The note with it: for growth status of transformed Escherichia coli: Example 5, FIG. 1. An excerpt: An Escherichia coli strain transformed with the Oryza sativa EPSPS mutant I-encoding gene according to Example 1 was used as Experimental Group 1 (having only the A155(138)T mutation).
An Escherichia coli strain transformed with the Oryza sativa EPSPS mutant II-encoding gene according to Example 2 was used as Experimental Group 3 (having the G111(96)A mutation and A155(138)T mutation).
An Escherichia coli strain transformed with a wild-type Oryza sativa EPSPS-encoding gene (SEQ ID NO: 14, encoding wild-type Oryza sativa EPSPS set forth in SEQ ID NO: 5) was used as a control group.
The glyphosate resistance of the Oryza sativa EPSPS mutant I-encoding gene and the encoded Oryza sativa EPSPS mutant I in Escherichia coli, and the glyphosate resistance of the Oryza sativa EPSPS mutant II-encoding gene and the encoded Oryza sativa EPSPS mutant II in Escherichia coli were verified by detecting the growth statuses of the transformed Escherichia coli in media containing different concentrations of glyphosate (0 mM, 1 mM, 2 mM, 20 mM) (media obtained by using M9 as a basal medium and then adding certain concentrations of antibiotics Spec (Spectinomycin), Gen (Gentamycin), and Amp (Ampicillin) and different concentrations of glyphosate).
Here, the Escherichia coli strain used was an double-knockout Escherichia coli strain (Escherichia coli strain DH5a from which an EPSPS gene and a C-P Lyase gene were knocked out, named EDCE, which may be prepared by a method with reference to Chinese Patent Application No. 2016103256926).
The detection was carried out by a method well known in the art, which was briefly described below. Gene encoding Oryza sativa EPSPS mutants was synthesized by a chemical synthesis method, wherein enzymatic digestion sites (Pacl and Sbfl) were introduced at both ends of the gene. The gene were enzymatically cleaved and then ligated in the presence of ligase to an expression vector (e.g., pADV5 vector having a structure as shown in FIG. 4) subjected to the same enzymatic digestion treatment, and then were transformed into the double-knockout Escherichia coli strain. After verification, positive clones were picked out and inoculated and grown in media containing glyphosate. The growth statuses were observed.

Test [2] deals with transgenic rice seedlings. Kind of test: Glyphosate resistance of EPSPS mutants in transgenic rice sprayed with glyphosate (Example 8). The class given is in vivo, rice (Nipponbare). An excerpt:
The glyphosate resistance of the EPSPS mutants of the above examples in transgenic rice was detected by the following method.
Plasmids of monoclonal resistant strain comprising pADV5-EPSPS of Examples 1-4 (containing the EPSPS mutant genes) were extracted in accordance with a conventional method. They were subjected to double enzymatic digestion with Pacl and BstEII to recover small fragments, and then the small fragments were ligated, using T4 DNA ligase, to a pGVP1 vector subjected to double enzymatic digestion in the same manner, to obtain a pGVP1-EPSPS vector having a structure as shown in FIG. 8.
The pGVP1-EPSPS vector was transformed into EHA105 (Agrobacterium tumefaciens) competent cells, and single clones were picked out for colony PCR detection to obtain positive strains. Then, the positive strains were inoculated into and propagated in 1 mL of a YEP medium containing 50 μg·mL^−1 kanamycin and 50 μg·mL^−1 rifampicin, and stored at −80° C. or used in subsequent experiments.
400 ul of a strain containing the target gene vector stored at −80° C. was added to a culture dish with a solid medium containing YEP+50 μg/mL rifampicin+50 μg/mL kanamycin and cultured in the dark at 28° C. for 24 hours, and then the bacterium was added to an infection medium and adjusted to OD=0.2 as an infection solution.
Disinfection and Pre-culture: seeds of mature rice (Nipponbare) were manually dehulled. Full seeds with no bacterial plaques were selected and disinfected in accordance with the following steps: the seeds were placed in a 50 ml sterile centrifuge tube and disinfected with the added 70% ethanol in water for 30 seconds, ethanol solution was poured out, and the seeds were washed once with sterile water; 10 to 20 ml of 2.6% sodium hypochlorite solution was added to soak and disinfect the seeds for 20 minutes. The sodium hypochlorite solution was poured out, and the seeds were soaked and washed with sterile water for 6 or 7 times, for 3 minutes each time.
Induction and Subculture: the seeds were placed on and blotted with sterile filter paper, and the mature embryos were placed in an induction medium, with 12 embryos per dish. After the operation was completed, the culture dishes were sealed with parafilm and underwent culturing in the dark at 30° C. for 21 to 28 days. Callus tissue was transferred to a fresh medium and continued to be cultured for about 7 to 14 days. Spherical callus tissue with a dimension of 1 to 2 mm was taken as an infection receptor.
The callus tissue was placed into a centrifuge tube or culture cup, infected in the prepared Agrobacterium suspension added thereto for 10 minutes, and shaken several times during the period; the bacterial solution was poured out, the callus tissue was taken out and placed on sterile filter paper for absorbing the bacterial solution from its surface (for about 30 minutes); the callus tissue was placed on sterile filter paper in culture dishes and cultured in the dark at 25° C. for 2 or 3 days.
Recovery Culture: the co-cultured callus tissue was inoculated on a recovery medium and cultured in the dark at 30° C. for 5 to 7 days.
Primary Screening: the callus was transferred to screening medium 1 (51) and cultured in the dark at 30° C. for 14 days.
Secondary Screening: the callus was then transferred to screening medium 2 (S2) and cultured in the dark at 30° C. for 14 days.
Primary Differentiation: the screened resistant callus tissue was transferred to a differentiation medium and cultured for about 21 days at 30° C. under exposure to light for 19 hours.
Secondary Differentiation: new young shoots were selected and moved to a fresh differentiation medium and continued to be cultured for about 21 days.
When the new seedlings grew to about 2 cm, they were moved to a rooting medium and cultured for 3 to 4 weeks at 30° C. under exposure to light (for 16/8 h). […]

[3] abbreviates: medium containing 1 mM glyphosate.
[4] abbreviates: medium containing 2 mM glyphosate.
Where [5] appears, read: medium containing 20 mM glyphosate.
Setting [6] is: 1X dose glyphosate (1,060 g/ha), day 10 after spraying.
Where [7] appears, read: 2X dose glyphosate (2,120 g/ha) on survivors of 1X, after another 10 days.
[8] abbreviates: 5X dose glyphosate (5,300 g/ha) on survivors of 2X, after additional 10 days.
Setting [9] is: 20X dose glyphosate (21,200 g/ha) on survivors of 5X, after further 10 days.

Data on two molecules can be found in US11572572B2, “A138T mutation-containing plant EPSPS mutant, and encoding gene and application thereof” (GEVOTO LLC, priority 2017, dated 2023).

Numbering of substitutions follows the chain as printed.

B1: R2: Oryza sativa EPSPS mutant having only the G111(96)A mutation (SEQ ID NO: 2), encoding gene SEQ ID NO: 16 (protein)
chain: MASNAAAAAAKAEEIVLQPIREISGAVQLPGSKSLSNRILLLSALSEGTTVVDNLLNSEDVHYMLEALKALGLSVEADKVAKRAVVVGCGGKFPVEKDAKEEVQLFLGNAATAMRPLTAAVTAAGGNATYVLDGVPRMRERPIGDLVVGLKQLGADVDCFLGTECPPVRVKGIGGLPGGKVKLSGSISSQYLSALLMAAPLALGDVEIEIIDKLISIPYVEMTLRLMERFGVKAEHSDSWDRFYIKGGQKYKSPGNAYVEGDASSASYFLAGAAITGGTVTVQGCGTTSLQGDVKFAEVLEMMGAKVTWTDTSVTVTGPPREPYGKKHLKAVDVNMNKMPDVAMTLAVVALFADGPTAIRDVASWRVKETERMVAIRTELTKLGASVEEGPDYCIITPPEKLNITAIDTYDDHRMAMAFSLAACADVPVTIRDPGCTRKTFPNYFDVLSTFVRN
modifications: Oryza sativa EPSPS mutant with only G111(96)A mutation
Consider B1, for which the “growth status of transformed Escherichia coli” value in test [1] (setting [3]) is given as “showed bacterial plaques”; in test [1] (setting [4]), “could not grow”; in test [1] (setting [5]), “could not grow”. Moreover, the “% ++&+++ (percentage of moderately and highly glyphosate resistant plants in total plants observed)” value in test [2] (setting [6]) is 69.2%; in test [2] (setting [7]), 61.5%; in test [2] (setting [8]) it was 46.2%; in test [2] (setting [9]) it was 15.4%. In addition, the “plant number with resistance + (low glyphosate resistant)” value is 2 in test [2] (setting [6]), 2 in test [2] (setting [7]), 2 in test [2] (setting [8]) and 4 in test [2] (setting [9]). Besides, the “plant number with resistance ++ (moderately glyphosate resistant)” value in test [2] (setting [6]) turned out to be 1; in test [2] (setting [7]), 2; in test [2] (setting [8]), 3; in test [2] (setting [9]), 1. Further, the “plant number with resistance +++ (highly glyphosate resistant)” value in test [2] (setting [6]) is on record as 8; in test [2] (setting [7]), 6; in test [2] (setting [8]) it was 3; in test [2] (setting [9]), 1. The “plant number with resistance − (non-glyphosate resistant, withered or dead)” value in test [2] (setting [7]) is on record as 3; in test [2] (setting [8]), 5; in test [2] (setting [9]), 7.

B2: R3: Oryza sativa EPSPS mutant II with G111(96)A and A155(138)T (SEQ ID NO: 7), encoding gene SEQ ID NO: 17 (protein)
chain: B1 chain with A155T
modifications: Oryza sativa EPSPS mutant with mutations G111(96)A and A155(138)T
Turning to B2, the “glyphosate concentration of medium in which the E. coli strain was kept in a growing state” value in test [1] (Example 5) is reported as “up to 20 mM”. For the same molecule, the entries for the “growth status of transformed Escherichia coli” value in test [1] (setting [3]), in test [1] (setting [4]) and in test [1] (setting [5]) were “showed bacterial plaques”, “could grow normally” and “could grow normally”, respectively. The “% ++&+++ (percentage of moderately and highly glyphosate resistant plants in total plants observed)” value in test [2] (setting [6]) is given as 70.8%; in test [2] (setting [7]), 66.7%; in test [2] (setting [8]) it was 50.0%; in test [2] (setting [9]) it was 22.9%. Moreover, the “plant number with resistance + (low glyphosate resistant)” value worked out at 1 in test [2] (setting [6]), 0 in test [2] (setting [7]), 0 in test [2] (setting [8]) and 7 in test [2] (setting [9]). The “plant number with resistance ++ (moderately glyphosate resistant)” value in test [2] (setting [6]) is given as 9; in test [2] (setting [7]), 4; in test [2] (setting [8]), 13; in test [2] (setting [9]), 7. For the same molecule, the “plant number with resistance +++ (highly glyphosate resistant)” value was 25 in test [2] (setting [6]), 28 in test [2] (setting [7]), 11 in test [2] (setting [8]) and 4 in test [2] (setting [9]). Further, the “plant number with resistance − (non-glyphosate resistant, withered or dead)” value in test [2] (setting [7]) came out at 16; in test [2] (setting [8]), 24; in test [2] (setting [9]), 30.
